For assay [1], the target named is elongation factor 1B alpha (eEF1Bα) of C. fasciculata (C. fasciculata (endogenous in choanomastigotes)). Kind of assay: SEC.
For assay [2], the target named is elongation factor 1B beta (eEF1Bβ) of C. fasciculata (C. fasciculata (endogenous in choanomastigotes)). Nature of the assay: SEC. (In gel filtration, larger molecules generally elute earlier.)

What is called stoichiometry N is a count of units in the complex or per binding partner. In the case of “elongation factor 1B gamma (eEF1Bγ) of C. fasciculata (natural protein)”, the stoichiometry N in assay [1] was 2 γ per α; in assay [2], 2 γ per β.

For “elongation factor 1B alpha (eEF1Bα) of C. fasciculata (natural protein)”, in assay [2], the stoichiometry N was 1 α per β.

(Values after paper PMC3428924.)
